Target: urotensin II receptor (human) (UniProt Q9UKP6)
Assay: cell-based or functional assay

Chain of UniProt Q9UKP6 (Q9UKP6 whole entry): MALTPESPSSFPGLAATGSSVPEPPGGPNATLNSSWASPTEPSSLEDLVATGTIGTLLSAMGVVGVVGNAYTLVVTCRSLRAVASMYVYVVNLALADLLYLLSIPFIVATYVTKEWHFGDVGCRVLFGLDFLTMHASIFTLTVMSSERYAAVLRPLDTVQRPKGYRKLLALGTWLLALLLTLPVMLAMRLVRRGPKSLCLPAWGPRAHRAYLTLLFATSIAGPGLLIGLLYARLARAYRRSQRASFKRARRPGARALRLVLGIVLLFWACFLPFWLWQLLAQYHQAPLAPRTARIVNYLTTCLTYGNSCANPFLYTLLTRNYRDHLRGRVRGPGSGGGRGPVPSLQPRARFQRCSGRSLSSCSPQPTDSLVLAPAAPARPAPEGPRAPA

CTGF mRNA (real-time PCR, GAPDH mRNA as reference) in human heart fibroblasts after 6 h with 1 µM urotensin II; control 0.45 +/- 0.27 (relative to GAPDH mRNA): 0.88
Col 1 mRNA (real-time PCR, GAPDH mRNA as reference) in human heart fibroblasts after 6 h with 1 µM urotensin II; control 0.56 +/- 0.1 (relative to GAPDH mRNA): 0.92
MMP 2 mRNA (real-time PCR, GAPDH mRNA as reference) in human heart fibroblasts after 6 h with 1 µM urotensin II; control 0.43 +/- 0.2 (relative to GAPDH mRNA): 0.65
TGFbeta1 mRNA (real-time PCR, GAPDH mRNA as reference) in human heart fibroblasts after 6 h with 1 µM urotensin II; control 0.60 +/- 0.09 (relative to GAPDH mRNA): 0.81
Substance: urotensin II (from UniProt O95399 114-124) (peptide)

Reference: patent US20030100484A1
